Measured values taken from patent US20240003881A1.

Tests used:
[1] = target: β10-S (SARS-CoV-2) (UniProt P0DTC2); experiment: tNLuc split-luciferase assay in solution with β9-G; CR3022 dose response, allosteric sigmoidal fit
[2] = target: β10-S-β10 (SARS-CoV-2) (UniProt P0DTC2); experiment: as above
[3] = target: β10-S-β10 (SARS-CoV-2) (UniProt P0DTC2); experiment: tNLuc assay (β9-G/β10-S-β10); CR3022 dose response with 0-100 µg/mL human IgG, allosteric noncompetitive inhibition model

Substance: CR3022 (antibody)
- Kd [1]: 0.42 µg/mL
- Kd [2]: 0.23 µg/mL
- Kd [3]: 0.22 µg/mL
